Experimental data from patent US20040170622A1, “Methods and compositions for modulating XBP-1 activity” (President and Fellows of Harvard College, priority 2002, published 2004).

Experiments:
XBP-1 = test: XBP-luciferase reporter in NIH3T3 cells; type: cell-based; conditions: in the presence of 5 uM MG-132; with unspliced XBP-1 (41.9 without)
Description: The fold induction of luciferase was measured in NIH3T3 cells bearing XBP-luciferase. The constructs included four copies of the XBP-1 target sequence TGGATGACGTGTACA (SEQ ID NO: 9) fused to the minimal promoter of the mouse RANTES gene (Clauss et al. Nucleic Acids Research 1996. 24:1855) or five copies of the ATF6/XBP-1 target […] (SEQ ID NO: 10) and comprising −53/+45 of the cfos promoter (J. Biol. Chem. 275:27013). In the presence of 5 uM MG-132, the presence of unspliced XBP-1 inhibits the fold induction of luciferase from 41.9 to 5.8. Thus, in the presence of proteasome inhibitors, the unspliced protein blocks the function of the spliced protein.

XBP-1s = test: UPRE-luciferase reporter in NIH3T3 cells; type: cell-based
Description: (A) Ubiquitination of XBP-1 in HeLa cells were cotransfected with XBP-1u and His-tagged ubiquitin expression plasmids. (B) Degradation rates of XBP-1u and XBP-1s proteins were determined by pulse labeling J558 cells with ^35S Met/Cys for 1 hr and chasing for the indicated times. (C) Effect of XBP-1u on XBP-1s dependent UPRE activation in PI-treated NIH3T3 cells with 8-fold excess of XBP-1u plasmids. Transfected cells were treated with MG-132 for 16 hrs before harvesting for luciferase assays. Values represent fold induction of activity compared to the reporter alone after normalizing to Renilla. (D) Generation and expression of lysine to arginine XBP-1u mutants. Two or three lysine residues in the C-terminus of XBP-1u were replaced by arginine to generate XBP-1uKK (235, 252) and XBP-1uKKK(146, 235, 252) by site-directed mutagenesis. dn-XBP contains the N-terminal 188 aa of XBP-1u. Western blot analysis was performed with NIH3T3 extracts transfected with the indicated plasmids. E) Inhibition of XBP-1 dependent activation of the UPRE reporter in NIH 3T3 cells by XBP-1u lysine to arginine mutants.
Two or three lysine residues in the C-terminus of XBP-1u were replaced by arginines to generate XBP-1uKK (K235R, K252R) and XBP-1uKKK(K146R, K235R, K252R) by site-directed mutagenesis (Iwakoshi et al.2003 Nature Immunology 4: 321-329). dn-XBP contains the N-terminal 188 aa of XBP-1u. NTH3T3 cells were transfected by using the Lipofectamine2000 reagent as recommended by the manufacturer (Invitrogen, Carlsbad, Calif.) with indicated amount of UPRE (UPR element) reporter (Wang et al. 2000 J Biol Chem 275: 27013-27020) and various effector plasmids. Cells were treated for 16 hours before harvest in certain experiments. Cells were lysed in passive lysis buffer for dual luciferase assays according to the manufacturer's protocol (Promega, Madison, Wis.).

IL-6 = IL-6 production by retrovirally transduced wt and XBP-1-/- B cells (ELISA, Northern blot); type: cell-based, murine; conditions: wild type and XBP-1-/- cells
Description: (§1) Assays to measure immunoglobulin or cytokine levels in culture supernatants were performed as described (e.g., Hodge et al., 1996 Immunity. 4:397-405 or Science. 1996 274:1903-5).
(§2) The XBP-1 cDNAs for the unspliced (XBP-1u/s) and the spliced (XBP-1s) forms were PCR-amplified from the total RNA of untreated and tunicamycin treated NIH3T3 cells, respectively, with a primer set (5′-[…]-3′ (SEQ ID NO: 7) and 5′-[…]-3′) (SEQ ID NO: 8). XBP-1u form was generated by a PCR-based mutagenesis from XBP-unspliced/s cDNA so that the two G residues at position 532 and 535 were changed to A without changing amino acid sequences in the XBP-1u open reading frame. Numbers are based on the sequences from gene bank database (NM_013842 [gi:13775155]). These XBP-1 cDNAs were inserted into the GFP-RV retroviral vector by using blunt end ligation (Sambrook et al., 1989). EFFECTENE transfection (Quiagen) was used to introduce the DNA into the Phoenix cell line as described by manufacturer (e.g., Reimold et al., 2001 Nature. 412:300-7 or Int Immunol. 2001 13:241-8). Viral supernatants were harvested after 48 hours and frozen at −80° C. for later use. B cells were purified from mouse spleens using CD43 depletion or positive selection with B220+ magnetic beads as described by the manufacturer (MidiMacs, Miltenyi Biotech). B cell purity was generally near 95% as confirmed by flow cytometry. The B cells (10^6 cells /ml) were then activated in culture with LPS 10 μg/ml and F (ab′)2 anti-IgM (5 μg/ml Southern Biotechnology Associates Inc.) for 24 hours. The 1 ml of activated B cells (10^6 cells/ml) were mixed with 4 μg of polybrene and 1 ml of virus-containing supernatant and spun at 1000 g for 45 minutes at 24° C. Cells were incubated for 24-36 h at 37° C. and then GFP+ cells were flow sorted and returned to culture with and without stimulation.
In human multiple myeloma cells, XBP-1 was induced by IL-6 treatment and implicated in the proliferation of malignant plasma cells (Wen et al., 1999). However, no role for IL-6 in upregulating XBP-1 transcripts or in mediating splicing of XBP-1 RNA in mature B cells has been described (FIG. 6A). The ability of XBP-1 to induce IL-6 production in wt and XBP-1^−/− primary B cells was tested. As described above, in vitro activated murine splenic B cells were transduced using retroviruses expressing bicistronic mRNA for XBP-1u/s, XBP-1s, XBP-1u and control GFP. After cell sorting, GFP^+ cells were stimulated with LPS and assayed for cytokine production after 72 h. In FIG. 6 panel (A) purified B cells from wt and XBP-1^−/− mice were activated in culture with LPS 10 μg/ml and F(ab′)2 anti-IgM (5 μg/ml ) for 24 hours. Retroviral transduction with GFP alone (GFP-Rv), XBP-1u/s (XBP-1 u/s GFP Rv), XBP-1s (XBP-1s GFP Rv) or XBP-1u (XBP-1u GFP Rv) of activated B cells was performed. Cells were incubated for 24-36 h at 37° C. and then GFP+ cells were flow sorted and then returned to culture with LPS stimulation (10 μg/ml) for 72 h. Cytokine production was analyzed by ELISA from culture supernatants of stimulated B cells. Experiments were done at least three times and standard deviation is shown. In panel (B) Total RNAs were prepared from stimulated B cells above and XBP-1 mRNA levels were determined by Northern blot analysis with γ-actin control

XBP-1^−/− B cells = test: Ig production by retrovirally transduced XBP-1-/- primary B cells (ELISA); type: cell-based, mouse; conditions: LPS 10 μg/ml 72 h
Description: as §1, §2
The effects of these three different forms of XBP-1 on Ig secretion were compared in wild type and XBP-1^−/− B cells. In vitro activated splenic B cells were transduced using retroviruses expressing bicistronic mRNA encoding XBP-1u/s, XBP-1s, XBP-1u or control GFP. In FIGS. 5(A) and (B) purified B cells from wt and XBP-1^−/− mice were activated in culture with LPS 10 μg/ml and F (ab′)2 anti-IgM (5 μg/ml) for 24 hours. Retroviral transduction with GFP alone (GFP-Rv), XBP-1u/s (XBP-1u/s GFP Rv), XBP-1s (XBP-1s GFP Rv) or XBP-1u (XBP-1u GFP Rv) of activated B cells was performed. Cells were incubated for 24-36 h at 37° C. and then GFP+ cells were flow sorted and then returned to culture with LPS stimulation (10 μg/ml) for 72 h. IgM panel(A) and IgG2b panel (B) production analyzed by ELISA from culture supernatants of stimulated B cells. Experiments were done at least three times and standard deviation is shown.

B1: XBP-1u: murine XBP-1 with point mutations at loop positions −1 and +3; yields only unspliced 33 K protein (protein)
chain: MVVVAAAPSAATAAPKVLLLSGQPASGGRALPLMVPGPRAAGSEASGTPQARKRQRLTHLSPEEKALRRKLKNRVAAQTARDRKKARMSELEQQVVDLEEENHKLQLENQLLREKTHGLVVENQELRTRLGMDTLDPDEVPEVEAKGSGVRLVAGSAESAALRLCAPLQQVQAQLSPPQNIFPWTLTLLPLQILSLISFWAFWTSWTLSCFSNVLPQSLLVWRNSQRSTQKDLVPYQPPFLCQWGPHQPSWKPLMNSFVLTMYTPSL
fold induction of luciferase (XBP-1): 5.8
UPRE reporter activity (XBP-1s; in the absence of treatment): but not XBP-1u, greatly increased reporter activity
effect on transactivation of UPRE reporter by XBP-1s (XBP-1s; in the presence of MG-132, 16 hrs, 8-fold excess of XBP-1u plasmid): significantly suppressed transactivation of the reporter by XBP-1s
IL-6 amounts expressed (IL-6): moderate amounts of IL-6
secretion of IgG2b compared to control cells (XBP-1^−/− B cells): unable to increase IgG secretion
secretion of IgM compared to control cells (XBP-1^−/− B cells): unable to increase IgM secretion
